The source of these data is PMC3961267.

The test system of this data set is P266L T7 RNA polymerase (bacteriophage T7). Description: fluorescence anisotropy. The note with it: Buffer A: 50 mM Tris-acetate, 50 mM sodium acetate, 10 mM magnesium acetate, 5 mM DTT, 25 C; pH not stated. For orientation: Fluorescence polarisation rises when a labelled molecule tumbles more slowly, as on binding a larger partner.

In general, Kd refers to the constant that tells how readily two partners part at equilibrium. A lower Kd goes with tighter binding. TAMRA-labeled T7 consensus promoter DNA: the Kd was 3.6 nM.
